Laboratory results: PMC9463131, “SLITRK1-mediated noradrenergic projection suppression in the neonatal prefrontal cortex” (Communications Biology, 2022)

Key:
[1] = target: T1, L1CAM ECD-His6 (777-NC-100, R&D Systems) (UniProt P32004 20-1120); assay: quartz crystal microbalance; AffinixQ, 27 MHz; about 200 femtomoles SLITRK1 ECD-Fc (WT, S330A or A444S) immobilised through anti-human IgG Fc on the gold resonator; ECD-His6 proteins added at several concentrations; 50 mM Tris-HCl pH 7.6, 15 mM NaCl, 140 mM KCl, 0.5 mM MgCl2, 2 mM CaCl2; 25 ± 1 °C; KD = koff/kon; conditions: both partners purified
T1 construct: L1CAM extracellular domain; source: bought: R&D Systems (777-NC-100)
T1 sequence (P32004 20-1120): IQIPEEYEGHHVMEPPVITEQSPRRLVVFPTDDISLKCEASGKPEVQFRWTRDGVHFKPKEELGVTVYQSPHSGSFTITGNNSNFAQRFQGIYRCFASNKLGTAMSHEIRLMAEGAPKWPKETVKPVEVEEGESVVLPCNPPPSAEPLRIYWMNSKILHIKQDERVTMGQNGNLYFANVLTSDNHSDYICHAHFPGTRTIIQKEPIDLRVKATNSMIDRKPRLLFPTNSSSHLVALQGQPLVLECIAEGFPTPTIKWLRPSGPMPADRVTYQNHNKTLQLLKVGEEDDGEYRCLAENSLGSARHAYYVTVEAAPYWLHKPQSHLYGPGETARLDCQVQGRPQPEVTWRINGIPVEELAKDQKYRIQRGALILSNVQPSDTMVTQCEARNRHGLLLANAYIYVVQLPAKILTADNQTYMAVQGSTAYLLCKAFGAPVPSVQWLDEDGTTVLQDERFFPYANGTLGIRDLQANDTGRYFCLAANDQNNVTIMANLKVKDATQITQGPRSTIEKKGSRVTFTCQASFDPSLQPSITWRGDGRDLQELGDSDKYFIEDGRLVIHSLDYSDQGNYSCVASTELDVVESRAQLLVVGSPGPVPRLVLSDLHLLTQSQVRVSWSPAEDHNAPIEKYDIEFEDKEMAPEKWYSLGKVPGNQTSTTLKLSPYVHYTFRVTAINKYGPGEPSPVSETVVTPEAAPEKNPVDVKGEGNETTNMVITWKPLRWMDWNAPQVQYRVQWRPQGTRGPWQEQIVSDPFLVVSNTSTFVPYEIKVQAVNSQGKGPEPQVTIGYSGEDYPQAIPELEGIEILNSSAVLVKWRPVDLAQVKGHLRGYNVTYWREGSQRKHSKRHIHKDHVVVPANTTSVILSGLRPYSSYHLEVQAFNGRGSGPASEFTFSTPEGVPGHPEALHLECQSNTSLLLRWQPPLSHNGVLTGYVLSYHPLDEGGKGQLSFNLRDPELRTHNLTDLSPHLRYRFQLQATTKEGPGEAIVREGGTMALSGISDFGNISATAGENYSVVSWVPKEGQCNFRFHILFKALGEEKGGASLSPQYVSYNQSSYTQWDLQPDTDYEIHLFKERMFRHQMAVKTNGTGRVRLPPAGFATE

[2] = target: T2, human PTPRD ECD-His6 (ACROBiosystems) (human, UniProt P23468 21-1265); assay: as above; conditions: both partners purified
T2 construct: human receptor-type protein tyrosine phosphatase delta (PTPRD), extracellular domain; No catalogue number printed; also called PTPRδ; source: bought: ACROBiosystems
T2 sequence (looked up): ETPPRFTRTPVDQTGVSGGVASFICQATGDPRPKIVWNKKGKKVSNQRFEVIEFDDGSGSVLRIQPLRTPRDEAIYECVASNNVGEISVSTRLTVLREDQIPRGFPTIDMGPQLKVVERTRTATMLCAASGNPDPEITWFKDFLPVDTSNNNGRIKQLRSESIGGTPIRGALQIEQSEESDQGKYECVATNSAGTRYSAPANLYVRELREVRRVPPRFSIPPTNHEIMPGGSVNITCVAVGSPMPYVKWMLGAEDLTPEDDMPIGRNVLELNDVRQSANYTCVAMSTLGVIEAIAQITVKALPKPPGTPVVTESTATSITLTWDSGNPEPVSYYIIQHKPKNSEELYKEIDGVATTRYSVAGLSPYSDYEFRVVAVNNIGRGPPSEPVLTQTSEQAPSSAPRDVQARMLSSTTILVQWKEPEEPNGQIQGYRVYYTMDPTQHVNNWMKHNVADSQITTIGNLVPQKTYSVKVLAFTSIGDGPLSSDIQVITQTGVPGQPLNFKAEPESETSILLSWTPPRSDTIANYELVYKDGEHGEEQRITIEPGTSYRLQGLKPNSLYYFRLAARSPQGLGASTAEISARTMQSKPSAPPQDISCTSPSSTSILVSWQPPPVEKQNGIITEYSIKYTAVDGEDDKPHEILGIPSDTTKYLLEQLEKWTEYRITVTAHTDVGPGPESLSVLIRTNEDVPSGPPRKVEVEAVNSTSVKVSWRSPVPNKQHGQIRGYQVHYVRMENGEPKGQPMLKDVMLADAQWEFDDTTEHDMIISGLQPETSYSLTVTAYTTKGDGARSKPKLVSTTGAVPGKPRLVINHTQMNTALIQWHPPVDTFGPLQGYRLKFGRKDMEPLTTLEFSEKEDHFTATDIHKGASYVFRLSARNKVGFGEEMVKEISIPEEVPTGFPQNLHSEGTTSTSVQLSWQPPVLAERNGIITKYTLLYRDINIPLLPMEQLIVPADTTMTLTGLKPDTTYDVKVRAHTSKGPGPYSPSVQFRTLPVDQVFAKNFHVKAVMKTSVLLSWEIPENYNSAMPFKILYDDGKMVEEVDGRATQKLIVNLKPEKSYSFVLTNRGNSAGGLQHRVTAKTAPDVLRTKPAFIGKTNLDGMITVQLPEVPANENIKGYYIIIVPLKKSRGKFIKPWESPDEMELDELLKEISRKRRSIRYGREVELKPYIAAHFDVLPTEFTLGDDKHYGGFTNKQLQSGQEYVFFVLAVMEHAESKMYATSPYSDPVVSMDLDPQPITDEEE

- Kd [1]: 5.47 nM
- Kd [2]: 152 nM
B1: SLITRK1 ECD-immunoglobulin Fc domain-fusion protein (SLITRK1-WT-Fc) (Fc fusion, human, UniProt Q96PX8 18-616, looked up)
chain: NVTGDVCKEKICSCNEIEGDLHVDCEKKGFTSLQRFTAPTSQFYHLFLHGNSLTRLFPNEFANFYNAVSLHMENNGLHEIVPGAFLGLQLVKRLHINNNKIKSFRKQTFLGLDDLEYLQADFNLLRDIDPGAFQDLNKLEVLILNDNLISTLPANVFQYVPITHLDLRGNRLKTLPYEEVLEQIPGIAEILLEDNPWDCTCDLLSLKEWLENIPKNALIGRVVCEAPTRLQGKDLNETTEQDLCPLKNRVDSSLPAPPAQEETFAPGPLPTPFKTNGQEDHATPGSAPNGGTKIPGNWQIKIRPTAAIATGSSRNKPLANSLPCPGGCSCDHIPGSGLKMNCNNRNVSSLADLKPKLSNVQELFLRDNKIHSIRKSHFVDYKNLILLDLGNNNIATVENNTFKNLLDLRWLYMDSNYLDTLSREKFAGLQNLEYLNVEYNAIQLILPGTFNAMPKLRILILNNNLLRSLPVDVFAGVSLSKLSLHNNYFMYLPVAGVLDQLTSIIQIDLHGNPWECSCTIVPFKQWAERLGSEVLMSDLKCETPVNFFRKDFMLLSNDEICPQLYARISPTLTSHSKNSTGLAETGTHSNSYLDTSRVS
notes: signal peptide in the construct; human SLITRK1 extracellular domain, amino acid number 1-616 in NP_443142; also called SLITRK1 ECD-Fc; SLITRK1 ECD-Fc fusion protein
